In the experiment the target is Recombinant SARS-CoV-2 spike protein ectodomain, native glycosylation (SARS-CoV-2) (UniProt P0DTC2). The experiment in a line: ELISA. A general note: In an ELISA, binding on a coated surface is turned into a signal by an enzyme label.

On to “Flt3 Receptor Interacting Lectin (FRIL) from Lablab purpureus (from UniProt Q9ZTA9) (natural protein)”, for which the lowest FRIL concentration at which binding was seen was 10 ng/mL.

Values taken from article PMC7380208.
